In article PMC2173952 one finds fold change of the coprecipitate with cpFtsY added against cpSRP alone and fold change of coprecipitated ALB3 with cpSRP added against cpFtsY alone data, which are given here for one substance.

Test [1] deals with cpSRP54-his (A. thaliana) (UniProt P37107). As to the kind of experiment: co-IP.
In test [2] the target is Trx-cpFtsY (UniProt O80842). The experiment in a line: pull-down.
Chain of UniProt O80842 (O80842 41-366): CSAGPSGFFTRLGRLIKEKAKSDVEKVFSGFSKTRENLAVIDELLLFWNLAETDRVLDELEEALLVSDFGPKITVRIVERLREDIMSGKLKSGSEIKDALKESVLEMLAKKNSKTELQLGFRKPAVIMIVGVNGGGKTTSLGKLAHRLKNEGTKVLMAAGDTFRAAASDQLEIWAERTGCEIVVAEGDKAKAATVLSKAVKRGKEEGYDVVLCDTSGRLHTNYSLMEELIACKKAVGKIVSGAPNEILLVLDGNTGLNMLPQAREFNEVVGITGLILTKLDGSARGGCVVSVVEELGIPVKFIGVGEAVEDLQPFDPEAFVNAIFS

Chain of UniProt P37107 (P37107 76-564): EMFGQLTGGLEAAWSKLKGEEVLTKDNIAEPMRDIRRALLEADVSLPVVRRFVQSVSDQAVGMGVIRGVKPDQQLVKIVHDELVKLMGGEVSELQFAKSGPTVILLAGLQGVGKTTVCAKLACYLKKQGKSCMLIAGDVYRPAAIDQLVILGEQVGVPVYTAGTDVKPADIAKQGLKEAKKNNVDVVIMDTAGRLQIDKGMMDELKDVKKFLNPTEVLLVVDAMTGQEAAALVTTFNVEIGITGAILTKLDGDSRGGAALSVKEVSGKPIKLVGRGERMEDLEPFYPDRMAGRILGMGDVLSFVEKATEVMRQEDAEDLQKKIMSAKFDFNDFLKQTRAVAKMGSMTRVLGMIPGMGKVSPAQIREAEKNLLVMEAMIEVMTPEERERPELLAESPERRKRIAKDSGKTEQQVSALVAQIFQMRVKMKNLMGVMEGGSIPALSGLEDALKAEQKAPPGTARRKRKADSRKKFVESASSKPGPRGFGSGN

Regarding “ALB3 (from UniProt Q8LBP4 57-462) (natural protein)”, in test [1], the fold change of the coprecipitate with cpFtsY added against cpSRP alone is above 2 fold. The same substance yielded a fold change of coprecipitated ALB3 with cpSRP added against cpFtsY alone in test [2] above 6 fold.
